{"source": "paper PMC4447949", "about": "“Structures of the Ets Protein DNA-binding Domains of Transcription Factors Etv1, Etv4, Etv5, and Fev” (The Journal of Biological Chemistry, 2015)", "binders": {"B1": {"name": "Etv1ALF/Etv1ALR EMSA probe (dsDNA)", "DNA 1": "ATCTCACCGGAAGTGTAGCA", "DNA 2": "TGCTACACTTCCGGTGAGAT"}}, "conditions_in_all_cases": "protein: recombinant; tags: N-terminal His6 removed by TEV (leaves SM); blunt", "key": {"Etv1 C416S [1]": {"target": "T1, Etv1 C416S (human, UniProt P50549 326-429, C416S)", "T1 sequence (P50549 326-429 C416S)": "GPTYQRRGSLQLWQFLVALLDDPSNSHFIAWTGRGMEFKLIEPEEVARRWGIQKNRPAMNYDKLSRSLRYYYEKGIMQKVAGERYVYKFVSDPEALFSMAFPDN", "experiment": "EMSA; 0.1 nM probe; EMSA: 50 mM Tris-HCl pH 7.5, 50 mM NaCl, 2 mM MgCl2, 0.01% Tween 20, 5% glycerol, 1 h at room temperature; proteins reduced with 10 mM TCEP unless stated; 10% native PAGE"}, "Etv1 K404A": {"target": "Etv1 K404A (human, UniProt P50549 326-429, K404A)", "sequence (P50549 326-429 K404A)": "as the sequence (P50549 326-429 C416S) above, with K79A, S91C counted along it", "experiment": "EMSA; 2 nM probe; EMSA: 50 mM Tris-HCl pH 7.5, 50 mM NaCl, 2 mM MgCl2, 0.01% Tween 20, 5% glycerol, 1 h at room temperature; proteins reduced with 10 mM TCEP unless stated; 10% native PAGE"}, "Etv1 C416S [2]": {"target": "T1, Etv1 C416S", "experiment": "EMSA; 2 nM probe; EMSA: 50 mM Tris-HCl pH 7.5, 50 mM NaCl, 2 mM MgCl2, 0.01% Tween 20, 5% glycerol, 1 h at room temperature; proteins reduced with 10 mM TCEP unless stated; 10% native PAGE"}, "Etv1 D387A": {"target": "Etv1 D387A (human, UniProt P50549 326-429, D387A)", "sequence (P50549 326-429 D387A)": "as the sequence (P50549 326-429 C416S) above, with D62A, S91C counted along it", "experiment": "EMSA; 2 nM probe; 10 mM TCEP; EMSA: 50 mM Tris-HCl pH 7.5, 50 mM NaCl, 2 mM MgCl2, 0.01% Tween 20, 5% glycerol, 1 h at room temperature; proteins reduced with 10 mM TCEP unless stated; 10% native PAGE"}, "Etv1 R394A": {"target": "Etv1 R394A (human, UniProt P50549 326-429, R394A)", "sequence (P50549 326-429 R394A)": "as the sequence (P50549 326-429 C416S) above, with R69A, S91C counted along it", "experiment": "EMSA; 2 nM probe; 10 mM TCEP; EMSA: 50 mM Tris-HCl pH 7.5, 50 mM NaCl, 2 mM MgCl2, 0.01% Tween 20, 5% glycerol, 1 h at room temperature; proteins reduced with 10 mM TCEP unless stated; 10% native PAGE"}, "Etv1 Y396F": {"target": "Etv1 Y396F (human, UniProt P50549 326-429, Y396F)", "sequence (P50549 326-429 Y396F)": "as the sequence (P50549 326-429 C416S) above, with Y71F, S91C counted along it", "experiment": "EMSA; 2 nM probe; 10 mM TCEP; EMSA: 50 mM Tris-HCl pH 7.5, 50 mM NaCl, 2 mM MgCl2, 0.01% Tween 20, 5% glycerol, 1 h at room temperature; proteins reduced with 10 mM TCEP unless stated; 10% native PAGE"}}}
{"binder": "B1", "values": [{"measurement": "Kd", "setting": "Etv1 C416S [1]", "result": "0.26 ± 0.06", "unit": "nM"}, {"measurement": "binding result", "setting": "Etv1 K404A", "result": "no binding"}, {"measurement": "Kd", "setting": "Etv1 C416S [2]", "result": "0.46 ± 0.06", "unit": "nM"}, {"measurement": "Kd", "setting": "Etv1 D387A", "result": "0.17 ± 0.02", "unit": "nM"}, {"measurement": "Kd", "setting": "Etv1 R394A", "result": "276 ± 62.7", "unit": "nM"}, {"measurement": "Kd", "setting": "Etv1 Y396F", "result": "2640 ± 935", "unit": "nM"}]}
